Source: PMC6063439

Experiment: immunoblot of HEK293 lysate and culture medium
Settings: glycan lost; control: wild-type FMOD

B1: fibromodulin (FMOD): FMODΔGAG (protein)
parent chain: MQWTSLLLLAGLFSLSQAQYEDDPHWWFHYLRSQQSTYYDPYDPYPYETYEPYPYGVDEGPAYTYGSPSPPDPRDCPQECDCPPNFPTAMYCDNRNLKYLPFVPSRMKYVYFQNNQITSIQEGVFDNATGLLWIALHGNQITSDKVGRKVFSKLRHLERLYLDHNNLTRMPGPLPRSLRELHLDHNQISRVPNNALEGLENLTALYLQHNEIQEVGSSMRGLRSLILLDLSYNHLRKVPDGLPSALEQLYMEHNNVYTVPDSYFRGAPKLLYVRLSHNSLTNNGLASNTFNSSSLLELDLSYNQLQKIPPVNTNLENLYLQGNRINEFSISSFCTVVDVVNFSKLQVLRLDGNEIKRSAMPADAPLCLRLASLIEI
- expression_or_secretion: abolishes
